Experimental data published in patent US11001838B2, “Platform for screening phosphomevalonate decarboxylase” (The Regents of the University of California, priority 2017, dated 2021).

Key:
[1] = target: T1, Saccharomyces cerevisiae diphosphomevalonate decarboxylase (PMDsc), wild type, SEQ ID NO: 1 (Saccharomyces cerevisiae, UniProt P32377); design: His tag; made in house; host or cells: E. coli (Rosetta (DE3) is stated for the mutant plasmids); conditions: original substrate MVAPP; Kang et al., 2016; Krepkiy and Miziorko, 2004; cited from earlier work
T1 sequence (P32377 1-396): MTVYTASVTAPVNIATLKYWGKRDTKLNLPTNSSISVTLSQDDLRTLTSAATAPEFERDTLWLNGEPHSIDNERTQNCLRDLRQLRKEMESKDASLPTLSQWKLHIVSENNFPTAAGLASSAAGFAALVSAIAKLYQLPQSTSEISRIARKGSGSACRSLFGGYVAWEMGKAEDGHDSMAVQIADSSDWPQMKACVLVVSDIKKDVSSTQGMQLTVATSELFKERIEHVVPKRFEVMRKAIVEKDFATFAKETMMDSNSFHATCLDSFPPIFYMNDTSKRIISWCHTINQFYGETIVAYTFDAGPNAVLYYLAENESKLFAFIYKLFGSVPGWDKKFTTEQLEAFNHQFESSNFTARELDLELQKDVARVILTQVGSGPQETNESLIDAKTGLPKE

E. coli DH1 [2] = experiment: Growth of E. coli DH1 under the screening conditions (MEP pathway blocked by fosmidomycin, IPP-bypass pathway + IPK)
E. coli DH1 [3] = conditions: from a previous study (Kang et al., 2016); cited from earlier work
[4] = substrate: C[C@@](O)(CCOP(=O)(O)O)CC(=O)O; experiment: In vitro kinetics of MVAP decarboxylation by PMDsc R74H (coupled assay); type: biochemical, Saccharomyces cerevisiae; conditions: other: MVAP 0.100-4.0 mM, 4 mM ATP, pH 7.5, brackets: standard error
E. coli DH1 [5] = experiment: Isopentenol production in E. coli via IPP-bypass MVA pathway (GC-FID); type: cell-based, Escherichia coli; conditions: 48 hr
[6] = previous study (Kang 2015); cited from earlier work

Molecule	kcat (MVAPP) [1]	competitive growth of mixed culture (WT, K22M, R74H) (E. coli DH1 [2]; 10 μM fosmidomycin, several dilutions, sequencing)	Growth rate (E. coli DH1 [2]; 10-fold higher inducer concentration (100 nM aTc))	Growth rate (E. coli DH1 [2]; Table 2, screening conditions, standard deviation in brackets)	Growth rate (E. coli DH1 [2]; screening conditions)	growth under fosmidomycin selection pressure (E. coli DH1 [2]; screening platform)	isopentenol titer (E. coli DH1 [3])	Km [4]	kcat [4]	kcat/Km [4]	48 hr Titer (isopentenol) (E. coli DH1 [5])	activity of WT for phosphomevalonate (MVAP) [6]
C[C@@](O)(CCOP(=O)(O)OP(=O)(O)O)CC(=O)O [MVAPP, mevalonate 5-diphosphate]	5.4 s⁻¹											
Saccharomyces cerevisiae diphosphomevalonate decarboxylase (PMDsc, SEQ ID NO: 1) variant R74H (Saccharomyces cerevisiae S288C; R74H) (protein, His tag; made in house; host or cells: E. coli Rosetta (DE3)) MTVYTASVTAPVNIATLKYWGKRDTKLNLPTNSSISVTLSQDDLRTLTSAATAPEFERDTLWLNGEPHSIDNEHTQNCLRDLRQLRKEMESKDASLPTLSQWKLHIVSENNFPTAAGLASSAAGFAALVSAIAKLYQLPQSTSEISRIARKGSGSACRSLFGGYVAWEMGKAEDGHDSMAVQIADSSDWPQMKACVLVVSDIKKDVSSTQGMQLTVATSELFKERIEHVVPKRFEVMRKAIVEKDFATFAKETMMDSNSFHATCLDSFPPIFYMNDTSKRIISWCHTINQFYGETIVAYTFDAGPNAVLYYLAENESKLFAFIYKLFGSVPGWDKKFTTEQLEAFNHQFESSNFTARELDLELQKDVARVILTQVGSGPQETNESLIDAKTGLPKE		dominant strain	0.83±0.01 hr^1	0.68 (0.04) hr^−1	0.68 ± 0.04 h⁻¹	grew faster than the strain with WT PMDsc	770.3 mg/L	0.75 (0.05) mM	0.33 (0.03) sec^−1	0.44 (0.05) mM^−1 sec^−1	770 (263) mg/L	220%
